The values below are quoted from earlier work in publication PMC4327442.

The data set has as its target IL-18 (Homo sapiens) (UniProt Q14116).

Chain of IL-18BP (O95998 31-194): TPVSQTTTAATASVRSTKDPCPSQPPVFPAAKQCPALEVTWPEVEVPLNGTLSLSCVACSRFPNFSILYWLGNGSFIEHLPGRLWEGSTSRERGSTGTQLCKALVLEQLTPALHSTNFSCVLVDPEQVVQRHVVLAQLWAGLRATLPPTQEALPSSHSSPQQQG
Chain of IL-18 (Homo sapiens) (Q14116 37-193): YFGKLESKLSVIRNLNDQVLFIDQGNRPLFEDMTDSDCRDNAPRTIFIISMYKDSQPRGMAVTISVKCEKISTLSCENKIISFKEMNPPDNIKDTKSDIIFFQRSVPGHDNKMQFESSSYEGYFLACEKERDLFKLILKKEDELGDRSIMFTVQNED

The term Kd denotes the equilibrium constant for the complex coming apart. With IL-18BP (from UniProt O95998), the Kd is 0.399 nM.
